These results are taken from article PMC12368724, “Impact of Changes in Buffer Ionic Concentration and Mutations on a GH1 β‑Glucosidase Homodimer” (ACS Omega, 2025).

Data set [1] has as its target T1, GH1 β-glucosidase from Spodoptera frugiperda (Sfβgly), wild-type (Spodoptera frugiperda). Put plainly: SEC-MALS; 90 μM Sfβgly in 100 mM sodium phosphate buffer pH 6 (P100) at 5 °C; two Superdex 200 columns in tandem. The following applies: both partners purified. A general note: SEC sorts molecules by how far they enter the pores of the column.
Data set [2] concerns the target T1, GH1 β-glucosidase from Spodoptera …. Put plainly: SEC; dimer to monomers; 5 mM phosphate buffer pH 6 (P5), 5 °C; KD is the slope of [M]^2 versus [D] from peak areas. The following applies: both partners purified.
Data set [3] shares this target. Description: SEC; dimer to monomers; 25 mM phosphate buffer pH 6 (P25), 5 °C; KD is the slope of [M]^2 versus [D] from peak areas. The following applies: both partners purified.
The target is the same in data set [4]. Put plainly: SEC; dimer to monomers; 50 mM phosphate buffer pH 6 (P50), 5 °C; KD is the slope of [M]^2 versus [D] from peak areas. The following applies: both partners purified.
For data set [5] the target is unchanged. Put plainly: SEC; dimer to monomers; 75 mM phosphate buffer pH 6 (P75), 5 °C; KD is the slope of [M]^2 versus [D] from peak areas. The following applies: both partners purified.
Data set [6] shares this target. Description: SEC; dimer to monomers; 100 mM phosphate buffer pH 6 (P100), 5 °C; two Superdex 200 HR10/300 GL columns in tandem; KD is the slope of [M]^2 versus [D] from peak areas at several protein concentrations. The following applies: both partners purified.
The target is the same in data set [7]. The data set is described as above. The following applies: both partners purified. This is another data set of the same source.
Data set [8] concerns the molecule itself. The description is as above.

B1: GH1 β-glucosidase from Spodoptera frugiperda (Sfβgly), wild-type (enzyme)
chain: QQRRFPDDFLFGTATASYQIEGAWDEDGKGENIWDYMVHNTPEVIRDLSNGDIAADSYHNYKRDVEMMRELGLDAYRFSLSWARILPTGMANEVNPAGIAFYNNYIDEMLKYNITPLITLYHWDLPQKLQELGGFANPLISDWFEDYARVVFENFGDRVKMFITFNEPREICFEGYGSATKAPILNATAMGAYLCAKNLVTAHAKAYYLYDREFRPVQGGQCGITISVNWFGPATPTPEDEMAAELRRQGEWGIYAHPIFSAEGGFPKELSDKIAEKSAQQGYPWSRLPEFTEEEKAFVRGTSDFFGVNHYTAFLVSATERKGPYPVPSLLDDVDTGSWADDSWLKSASAWLTLAPNSIHTALTHLNNLYNKPVFYITENGWSTDESRENSLIDDDRIQYYRASMESLLNCLDDGINLKGYMAWSLMDNFEWMEGYIERFGLYEVDFSDPARTRTPRKAAFVYKHIIKHRVVDYEYEPETMVMTIDEGH
modifications: Monomer given, self-associates to a C2 homodimer. Limits by convention from the 5CG0 entity; paper numbering = entity + 20 (precursor numbering) / Monomer given, self-associates to a C2 homodimer. …
In general, stoichiometry N refers to a count of units in the complex or per binding partner. One may read the Kd as a measure of binding affinity in units of concentration. A low value points to a tighter complex. As to B1, the “stoichiometry N” value in data set [1] came out at 2. For the same molecule, the Kd in data set [2] turned out to be 135 µM; in data set [3], 78 µM; in data set [4], 9.5 µM; in data set [5], 9.9 µM; in data set [6], 7 µM; in data set [7], 8 µM.

B2: Sfβgly mutant D166S (enzyme)
chain: QQRRFPDDFLFGTATASYQIEGAWDEDGKGENIWDYMVHNTPEVIRDLSNGDIAADSYHNYKRDVEMMRELGLDAYRFSLSWARILPTGMANEVNPAGIAFYNNYIDEMLKYNITPLITLYHWDLPQKLQELGGFANPLISDWFESYARVVFENFGDRVKMFITFNEPREICFEGYGSATKAPILNATAMGAYLCAKNLVTAHAKAYYLYDREFRPVQGGQCGITISVNWFGPATPTPEDEMAAELRRQGEWGIYAHPIFSAEGGFPKELSDKIAEKSAQQGYPWSRLPEFTEEEKAFVRGTSDFFGVNHYTAFLVSATERKGPYPVPSLLDDVDTGSWADDSWLKSASAWLTLAPNSIHTALTHLNNLYNKPVFYITENGWSTDESRENSLIDDDRIQYYRASMESLLNCLDDGINLKGYMAWSLMDNFEWMEGYIERFGLYEVDFSDPARTRTPRKAAFVYKHIIKHRVVDYEYEPETMVMTIDEGH
In turn, B2 displayed a Kd in data set [8] of 100 µM.

B3: Sfβgly mutant N112S (enzyme)
chain: QQRRFPDDFLFGTATASYQIEGAWDEDGKGENIWDYMVHNTPEVIRDLSNGDIAADSYHNYKRDVEMMRELGLDAYRFSLSWARILPTGMASEVNPAGIAFYNNYIDEMLKYNITPLITLYHWDLPQKLQELGGFANPLISDWFEDYARVVFENFGDRVKMFITFNEPREICFEGYGSATKAPILNATAMGAYLCAKNLVTAHAKAYYLYDREFRPVQGGQCGITISVNWFGPATPTPEDEMAAELRRQGEWGIYAHPIFSAEGGFPKELSDKIAEKSAQQGYPWSRLPEFTEEEKAFVRGTSDFFGVNHYTAFLVSATERKGPYPVPSLLDDVDTGSWADDSWLKSASAWLTLAPNSIHTALTHLNNLYNKPVFYITENGWSTDESRENSLIDDDRIQYYRASMESLLNCLDDGINLKGYMAWSLMDNFEWMEGYIERFGLYEVDFSDPARTRTPRKAAFVYKHIIKHRVVDYEYEPETMVMTIDEGH
In the case of B3, the Kd in data set [8] was 1200 µM.

B4: Sfβgly mutant M210A (enzyme)
chain: QQRRFPDDFLFGTATASYQIEGAWDEDGKGENIWDYMVHNTPEVIRDLSNGDIAADSYHNYKRDVEMMRELGLDAYRFSLSWARILPTGMANEVNPAGIAFYNNYIDEMLKYNITPLITLYHWDLPQKLQELGGFANPLISDWFEDYARVVFENFGDRVKMFITFNEPREICFEGYGSATKAPILNATAAGAYLCAKNLVTAHAKAYYLYDREFRPVQGGQCGITISVNWFGPATPTPEDEMAAELRRQGEWGIYAHPIFSAEGGFPKELSDKIAEKSAQQGYPWSRLPEFTEEEKAFVRGTSDFFGVNHYTAFLVSATERKGPYPVPSLLDDVDTGSWADDSWLKSASAWLTLAPNSIHTALTHLNNLYNKPVFYITENGWSTDESRENSLIDDDRIQYYRASMESLLNCLDDGINLKGYMAWSLMDNFEWMEGYIERFGLYEVDFSDPARTRTPRKAAFVYKHIIKHRVVDYEYEPETMVMTIDEGH
B4 came in with a Kd in data set [8] of 3600 µM.

B5: Sfβgly mutant L214A (enzyme)
chain: QQRRFPDDFLFGTATASYQIEGAWDEDGKGENIWDYMVHNTPEVIRDLSNGDIAADSYHNYKRDVEMMRELGLDAYRFSLSWARILPTGMANEVNPAGIAFYNNYIDEMLKYNITPLITLYHWDLPQKLQELGGFANPLISDWFEDYARVVFENFGDRVKMFITFNEPREICFEGYGSATKAPILNATAMGAYACAKNLVTAHAKAYYLYDREFRPVQGGQCGITISVNWFGPATPTPEDEMAAELRRQGEWGIYAHPIFSAEGGFPKELSDKIAEKSAQQGYPWSRLPEFTEEEKAFVRGTSDFFGVNHYTAFLVSATERKGPYPVPSLLDDVDTGSWADDSWLKSASAWLTLAPNSIHTALTHLNNLYNKPVFYITENGWSTDESRENSLIDDDRIQYYRASMESLLNCLDDGINLKGYMAWSLMDNFEWMEGYIERFGLYEVDFSDPARTRTPRKAAFVYKHIIKHRVVDYEYEPETMVMTIDEGH
In the case of B5, binding in data set [8] was characterised by a dissociation constant (Kd) of 5400 µM.

B6: Sfβgly mutant N157S (enzyme)
chain: QQRRFPDDFLFGTATASYQIEGAWDEDGKGENIWDYMVHNTPEVIRDLSNGDIAADSYHNYKRDVEMMRELGLDAYRFSLSWARILPTGMANEVNPAGIAFYNNYIDEMLKYNITPLITLYHWDLPQKLQELGGFASPLISDWFEDYARVVFENFGDRVKMFITFNEPREICFEGYGSATKAPILNATAMGAYLCAKNLVTAHAKAYYLYDREFRPVQGGQCGITISVNWFGPATPTPEDEMAAELRRQGEWGIYAHPIFSAEGGFPKELSDKIAEKSAQQGYPWSRLPEFTEEEKAFVRGTSDFFGVNHYTAFLVSATERKGPYPVPSLLDDVDTGSWADDSWLKSASAWLTLAPNSIHTALTHLNNLYNKPVFYITENGWSTDESRENSLIDDDRIQYYRASMESLLNCLDDGINLKGYMAWSLMDNFEWMEGYIERFGLYEVDFSDPARTRTPRKAAFVYKHIIKHRVVDYEYEPETMVMTIDEGH
As to B6, the Kd in data set [8] was 28 µM.
